Each block holds one binder with its values, some of them ahead of it.
Key:
[1] = target: ATOR-1017 (evunzekibart) (human); assay: BLI; Octet RED96; antibodies captured on FABG2 biosensor tips, recombinant Fcγ receptors in solution at suitable concentration ranges; association and dissociation at physiological pH; conditions: remark: other sources report otherwise
[2] = target: human 4-1BB on activated primary human immune cells (human (endogenous in primary PBMC)) (UniProt Q07011)
Sequence of human 4-1BB on activated primary human immune cells (human (endogenous in primary PBMC)) (Q07011 24-255): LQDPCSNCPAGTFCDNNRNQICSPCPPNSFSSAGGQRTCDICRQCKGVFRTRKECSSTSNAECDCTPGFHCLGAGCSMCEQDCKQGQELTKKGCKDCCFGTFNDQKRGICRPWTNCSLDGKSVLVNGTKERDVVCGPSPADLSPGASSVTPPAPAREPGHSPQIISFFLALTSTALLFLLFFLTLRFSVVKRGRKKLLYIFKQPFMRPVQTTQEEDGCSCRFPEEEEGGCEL

Kd [1]: 800 nM
B1: human FcγRIIb, P31994 43-310 (receptor)
chain: TPAAPPKAVLKLEPQWINVLQEDSVTLTCRGTHSPESDSIQWFHNGNLIPTHTQPSYRFKANNNDSGEYTCQTGQTSLSDPVHLTVLSEWLVLQTPHLEFQEGETIVLRCHSWKDKPLVKVTFFQNGKSKKFSRSDPNFSIPQANHSHSGDYHCTGNIGYTLYSSKPVTITVQAP
modifications: here or on the partner: soluble ectodomain assumed for BLI

Kd [1]: 200 nM
B2: mouse FcγRI, P26151 25-404 (receptor)
chain: EVVNATKAVITLQPPWVSIFQKENVTLWCEGPHLPGDSSTQWFINGTAVQISTPSYSIPEASFQDSGEYRCQIGSSMPSDPVQLQIHNDWLLLQASRRVLTEGEPLALRCHGWKNKLVYNVVFYRNGKSFQFSSDSEVAILKTNLSHSGIYHCSGTGRHRYTSAGVSITVKELFTTPVLRASVSSPFPEGSLVTLNCETNLLLQRPGLQLHFSFYVGSKILEYRNTSSEYHIARAEREDAGFYWCEVATEDSSVLKRSPELELQVLGPQSSAP
modifications: here or on the partner: soluble ectodomain assumed for BLI

IFNγ production by IL-2 pre-stimulated human NK cells co-cultured with FcγRI-CHO cells, serially diluted ATOR-1017 [2]: 0.1 nM
IFNγ production by anti-CD3-activated human CD8+ T cells co-cultured with FcγRI-CHO cells, 72 h, serially diluted ATOR-1017 [2]: 0.2 nM
B3: ATOR-1017 (evunzekibart) (antibody, V domains shown)
VH: EVQLLESGGGLVQPGGSLRLSCAASGFNFGYSYMSWVRQAPGKGLEWVSSIGSTSSHTYYADSVKGRFTISRDNSKNTLYLQMNSLRAEDTAVYYCARVYSSPGIDYWGQGTLVTVSS
VL: DIQMTQSPSSLSASVGDRVTITCRASQSIGSTLNWYQQKPGKAPKLLIYGASSLQSGVPSRFSGSGSGTDFTLTISSLQPEDFATYYCQQYYTWVPFTFGQGTKLEIK

Kd [1]: 1000 nM
B4: human FcγRIIa, P12318 34-317 (receptor)
chain: QAAAPPKAVLKLEPPWINVLQEDSVTLTCQGARSPESDSIQWFHNGNLIPTHTQPSYRFKANNNDSGEYTCQTGQTSLSDPVHLTVLSEWLVLQTPHLEFQEGETIMLRCHSWKDKPLVKVTFFQNGKSQKFSHLDPTFSIPQANHSHSGDYHCTGNIGYTLFSSKPVTITVQVPSMGSSSPMG
modifications: here or on the partner: Soluble extracellular domain by convention (UniProt topology); construct limits not printed. Allotype of the recombinant protein not stated in the excerpt: given as H131 (H167 in precursor numbering);
